Reference: paper doi:10.1101/2025.09.09.675193 (bioRxiv, 2025)
Square brackets hold non-standard residues; d marks the D form. Ends that are not written are not given here. * marks the point of attachment. 5FAM = O=C1OC2(c3ccc(O)cc3Oc3cc(O)ccc32)c2ccc(C(=O)*)cc21; pT = C[C@@H](OP(=O)(O)O)[C@H](N)C(=O)O; pS = N[C@@H](COP(=O)(O)O)C(=O)O

What was measured:
[1] = target: recombinant TOPBP1 BRCT domains 4+5 (residues 548-741) (human, UniProt Q92547 548-741); experiment: fluorescence polarisation
DDIAS OB fold C25A/C28A = target: T1, DDIAS OB fold C25A/C28A (Homo sapiens, UniProt Q8IXT1 1-168, C25A;C28A); experiment: EMSA
T1 sequence: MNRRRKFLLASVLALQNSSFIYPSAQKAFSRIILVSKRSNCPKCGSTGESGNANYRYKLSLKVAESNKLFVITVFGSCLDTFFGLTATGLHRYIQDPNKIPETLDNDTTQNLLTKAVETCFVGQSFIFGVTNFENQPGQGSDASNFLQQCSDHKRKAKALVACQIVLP

DDIAS OB fold WT = target: T2, DDIAS OB fold WT (Homo sapiens, UniProt Q8IXT1 1-168); experiment: EMSA
T2 sequence: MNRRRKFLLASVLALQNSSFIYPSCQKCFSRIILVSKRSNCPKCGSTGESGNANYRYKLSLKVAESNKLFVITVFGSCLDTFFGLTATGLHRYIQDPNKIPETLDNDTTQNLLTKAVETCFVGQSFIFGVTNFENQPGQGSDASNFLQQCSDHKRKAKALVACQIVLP

[2] = target: recombinant TOPBP1 BRCT domains 7+8 (residues 1263-1495) (human, UniProt Q92547 1263-1495); experiment: fluorescence polarisation
Chain of recombinant TOPBP1 BRCT domains 7+8 (residues 1263-1495) (Q92547 1263-1495): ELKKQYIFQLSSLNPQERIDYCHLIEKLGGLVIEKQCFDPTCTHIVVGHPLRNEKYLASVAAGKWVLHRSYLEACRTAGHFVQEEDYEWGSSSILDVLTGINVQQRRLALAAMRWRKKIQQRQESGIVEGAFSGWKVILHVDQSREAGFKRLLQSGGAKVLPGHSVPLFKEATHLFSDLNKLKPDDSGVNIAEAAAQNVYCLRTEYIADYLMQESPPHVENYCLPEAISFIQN

Chain of recombinant TOPBP1 BRCT domains 4+5 (residues 548-741) (Q92547 548-741): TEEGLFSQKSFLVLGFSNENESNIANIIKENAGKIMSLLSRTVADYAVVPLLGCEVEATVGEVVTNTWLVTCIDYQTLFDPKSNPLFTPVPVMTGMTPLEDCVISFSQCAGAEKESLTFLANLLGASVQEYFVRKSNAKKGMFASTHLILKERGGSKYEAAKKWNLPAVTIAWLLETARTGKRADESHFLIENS

5FAM-GSGETDSDEWVPP[pT]TQK (also: phosphothreonine at Thr868 (position not mappable)) [DDIAS-pT868 peptide, 5-carboxy-fluorescein labelled]: binds [1].

GATGAGATTGAGGCTGGCCTGCAGGCATGCAAGCACCTGG (ssDNA) [Cy5 40-nt ssDNA]: no binding (DDIAS OB fold C25A/C28A); binds (DDIAS OB fold WT).

B1: Cy5 40-bp dsDNA (dsDNA)
DNA 1: GATGAGATTGAGGCTGGCCTGCAGGCATGCAAGCACCTGG
DNA 2: CCAGGTGCTTGCATGCCTGCAGGCCAGCCTCAATCTCATC
B1: no binding (DDIAS OB fold WT).

5FAM-GSGETRSAW[pS]PELFS (also: phosphoserine at Ser993 (position not mappable)) [DDIAS-pS993 peptide, 5-carboxy-fluorescein labelled]: binds [2].

5FAM-GSGEGSYDA[pS]ADLFDD (also: phosphoserine at Ser676 (S6 or S10)) [DDIAS-pS676 peptide, 5-carboxy-fluorescein labelled]: binds [2].
